Results on one substance are retold here after paper PMC10130389, “Growth hormone secretagogues modulate inflammation and fibrosis in mdx mouse model of Duchenne muscular dystrophy” (Frontiers in Immunology, 2023).

No end group written: not given here.

One data set has as its system H2K-2B4 cells. Description: CCK-8 cell viability, WT H2K-2B4 cells. The settings on record: at 1 mM, proliferation and differentiation conditions, CCK-8, triplicate. The class given is cell-based, murine. As for the experimental part:
(§1) Wild-type (WT) H2K-2B4 and dystrophic H2K-SF1 cell lines were cultured and used for all the experiments ([48]). Cells were seeded in 96-well cultures (approximately 4–4.5 × 10^3 cells per well) and sixteen hours after seeding were treated with EP80317, JMV2894 (both in the concentration range 100μM to 1mM) or ghrelin (as control in the concentration range 10nM to 100 μM). Cell viability was then evaluated at different time points following the exposure (16-96 h) by using the Cell Counting Kit-8 (CCK-8,96992 Sigma-Aldrich), according to the instruction. The optical density of each well was determined using a microplate reader set to 450 nm (Victor 3V, Perkin Elmer, Waltham, MA, USA). Cell viability was expressed in percentage vs. control properly corrected for blank values.

A further data set has as its system H2K-SF1 cells. Briefly: CCK-8 cell viability, dystrophic H2K-SF1 cells. The class given is cell-based, murine. Particulars: at 1 mM, proliferation and differentiation conditions, CCK-8, triplicate. The protocol:
as §1

In the case of “ghrelin: 28 amino acid hormone, used as control in the cell viability assay (GSSFLSPEHQRVQQRKESKKPPAKLQPR; ends and bridges not checked; UniProt Q9UBU3 24-51, looked up)”, the “toxic effect on 2B4 cells” value in the data set on H2K-2B4 cells is recorded as “no toxic effect”. Moreover, the “toxic effect on SF1 cells” value in the data set with H2K-SF1 cells is given as “no toxic effect”.
